The term Km denotes the substrate concentration at which the rate is half of its maximum.

The source of these data is ChEMBL document CHEMBL1123043, “Effects of charge, volume, and surface on binding of inhibitor and substrate moieties to acetylcholinesterase” (J Med Chem, 1985).

Substrate in series [1]: CC(=O)CCC[N+](C)(C)[O-]
Description: (§1) Compound was evaluated for reversible inhibition of hydrolysis acetylcholine by acetylcholinesterase and represented as Km(app) apparent binding constant
Substrate in series [2]: CC(=O)OCCS(C)(=O)=O
Description: as §1
Substrate in series [3]: CC(C)(C)CCO
Description: as §1
Substrate in series [4]: CCCCO
Description: as §1
Substrate in series [5]: CN(C)C
Description: as §1
Substrate in series [6]: CS(=O)(=O)CCO
Description: as §1
Substrate in series [7]: CSCCO
Description: as §1
Substrate in series [8]: C[N+](C)(C)CCO
Description: as §1
Substrate in series [9]: C[S+](C)CCO
Description: as §1
Substrate in series [10]: C[Si](C)(C)CCO
Description: as §1
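Also: apparent binding constant Km(app) for reversible inhibition of acetylcholine hydrolysis catalysed by acetylcholinesterase.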

B1: Choline O-acetyltransferase (Rattus norvegicus), P32738 (protein)
chain: MPILEKAPQKMPVKASSWEELDLPKLPVPPLQQTLATYLQCMQHLVPEEQFRKSQAIVKRFGAPGGLGETLQEKLLERQEKTANWVSEYWLNDMYLNNRLALPVNSSPAVIFARQHFQDTNDQLRFAACLISGVLSYKTLLDSHSLPTDWAKGQLSGQPLCMKQYYRLFSSYRLPGHTQDTLVAQKSSIMPEPEHVIVACCNQFFVLDVVINFRRLSEGDLFTQLRKIVKMASNEDERLPPIGLLTSDGRSEWAKARTVLLKDSTNRDSLDMIERCICLVCLDGPGTGELSDTHRALQLLHGGGCSLNGANRWYDKSLQFVVGRDGTCGVVCEHSPFDGIVLVQCTEHLLKHMMTSNKKLVRADSVSELPAPRRLRLKCSPETQGHLASSAEKLQRIVKNLDFIVYKFDNYGKTFIKKQKYSPDGFIQVALQLAYYRLYQRLVPTYESASIRRFQEGRVDNIRSATPEALAFVQAMTDHKAAMPASEKLQLLQTAMQAHKQYTVMAITGMAIDNHLLALRELARDLCKEPPEMFMDETYLMSNRFVLSTSQVPTTMEMFCCYGPVVPNGNGACYNPQPEAITFCISSFHSCKETSSVEFAEAVGASLVDMRDLCSSRQPADSKPPAPKEKARGPSQAKQS
Regarding B1, the Km amounted to 18 mM in [1]; 6.2 mM in [2]; 5.3 mM in series [3]; 13 mM in series [4]; 18 mM in series [5]; 6.2 mM in series [6]. The Km in series [7] was found to be 15 mM; in [8] it was 0.33 mM; in [9], 0.33 mM; in series [10], 3.5 mM.
